Assay: yeast display, Sf9 membrane polyspecificity reagent, FACS + sequencing; frameworks hold sequencing errors
In short: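 Polyreactivity labels are assigned by the sorting gate from which each nanobody was recovered. The gates were low and high (top ~1%), set on anti-HA fluorescence for expression and streptavidin fluorescence for reagent binding. Before sorting, galactose-induced (36–48 hours) yeast display cells were stained for 1 hour at 4 °C with 10% biotinylated, detergent-solubilized Sf9 membrane reagent.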

Row | Sequence | polyreactivity (PSR sort gate)
1 | QVQLVESGGGLVQAGGSLRLSCAASGRTLADNAMGWYRQAPGKERELVAAITFSGDTTYYADSVKGRFTISRDNAKNTVYLQMNSLKPEDTAVYYCAAESSDPRAYDYWGQGTQVTVSS | low polyreactivity
2 | QVQLVESGGGLVQAGGSLRLSCAASGRTLARNAMGWYRQAPGKERELVASINGRTTRTYYADSVKGRFTISRDNAKNTVYLQMNSLKPEDPAVYYCAARATNVYSKMDYWGQGTQVTVSS | high polyreactivity
3 | QVQLVESGGGLVQAGGSLRLSCAASGRTLARYAMGGYRQAPGKERELVAAISSSGGSTYYADSVKGRFTISRDNAKNTVYLQMNSLKPEDTAVYYCAAGWRYRYFRSRNFYPYYYWGQGTQVTVSS | high polyreactivity
4 | QVQLVESGGGLVQAGGSLRLSCAASGRTLASYGMGWYRQAPGKERELVAAISSRGGTTYYADSVKGRFTISRDNAKNTVYLQMNSLKPEDTAVYYCAKPGRYWGQGTQVTVSS | high polyreactivity
5 | QVQLVESGGGLVQAGGSLRLSCAASGRTLATYAMGWYRQAPGKERELVADISWRGGTTYYADSVKGRFTISRDNAKNTVYLQMNSLKPEDTAVYYCAKRFLFHSYYWGQGSQVTVSS | high polyreactivity
6 | QVQLVESGGGLVQAGGSLRLSCAASGRTLDLYAMGWYRQAPGKERELVAAISWRGGRTYYADSVKGRFTISRDNAQTTVYLQMNSLKPEDTAVYYCKADYPWSVVGYDYWGQGTQVSVSS | low polyreactivity
7 | QVQLVESGGGLVQAGGSLRLSCAASGRTLDSNAMGWYRQAPGKERELVAAISSAGSTNYADSVKGRFTISRDNAKNTVYLQMNRLQPEDTAVYYCAADLIGSHDYWGQGTQVTVSS | low polyreactivity
8 | QVQLVESGGGLVQAGGSLRLSCAASGRTLEHNAMGWYRQAPGKERELVAAITDGGASTYYADSVKGRFTISRENAKNTVYLQMNSLKPEDTAVYYFAADTYPTTSEFDYWGQGTQVTVSS | low polyreactivity
9 | QVQLVESGGGLVQAGGSLRLSCAASGRTLFHYAMGWYRQAPGKERELVAAIRNSDGSTYYADSVKGRFTISRDNAKNSVYLQMNSLKPEDTGDYNCAAKYKYGTYNYWGQGSQVTVSS | high polyreactivity
10 | QVQLVESGGGLVQAGGSLRLSCAASGRTLFPNVMGWYRQAPGKERELVAAITTIGGSTYYADSVKGRFTISRDNGKNTVFLQMNSLKPEDTEVYYCNARYRGRGLKFAYWGQGTQVTVSS | high polyreactivity
11 | QVQLVESGGGLVQAGGSLRLSCAASGRTLGGNAMGWYRQAPGQERELVAAITNSASTYADSVKGRFTISRDNAKNTVYIQMNSLKPEDTAVYYCTAPDPSDQNGDYWGQGTQVTVSS | low polyreactivity
12 | QVQLVESGGGLVQAGGSLRLSCAASGRTLGQNVMGWYRQAPGKERELVAAISSNTAGNTYYADSVKGRFTISRDNAKNTVYLQMNSLKPEDTAVYYCAIVDSFEAILDYWGQGTQVTVSS | low polyreactivity
13 | QVQLVESGGGLVQAGGSLRLSCAASGRTLGRNAMGWYRQAPGKERELVASISSGGSTNYADSVKGRFTISRDNAKNTVYLQMNSLKPEDTAVYYCNKRYRSLYSSGYDYWGQGTQVTVSS | high polyreactivity
14 | QVQLVESGGGLVQAGGSLRLSCAASGRTLGRYAMGWYRPAPGKERELVAAITRRGGITYYADSVKGRFTISRDNAKNTVYLQMNSLKPEDTAVYYCNAVNKSLQPVRDVYPLYRHDYWGQGTQVTVSS | high polyreactivity
15 | QVQLVESGGGLVQAGGSLRLSCAASGRTLGRYAMGWYRQAPGKERELVAAINVGGGTTHYADSVKGRFTISRDNAKNTVYLQMNSLKPEDTAVYYCAAYRYTYGDRHAYDYWGQGTQVTVSS | low polyreactivity
16 | QVQLVESGGGLVQAGGSLRLSCAASGRTLGVYAMGWYRQAPGKERELVATITSGDGTNYADSVKGRFTISRDNAKNTVYLQMNSLKPVDTAVYYCNAEAKSQWFVYPYWYWPLYDYWGPGTQVTVSS | low polyreactivity
17 | QVQLVESGGGLVQAGGSLRLSCAASGRTLHKNVMGWYRQAPGKERELVAAINTGGRTYYADSVKGRFTISRDNAKNTVYLQMNSLKREDTAVYYCAKEGHVNPRPTVGGDYWGQGTQVTVSS | low polyreactivity
18 | QVQLVESGGGLVQAGGSLRLSCAASGRTLIFYAMGWYRQAPGKERELVAAISGSGGRTYYADSVKGRFTISRDNAKNTVYLQMNSLKPEDTAVYYCNRRHSYPYDYWGQGTQVTVSS | high polyreactivity
19 | QVQLVESGGGLVQAGGSLRLSCAASGRTLIVNTMGWYRQAPGKEREFVAAIFSGASTYYAYSVKGRFTISRDNAKNTVYLQMNSLKPEDTAVYYCAVRNWHLIKYLHGYTRYGYWGQCTQVTVSS | low polyreactivity
20 | QVQLVESGGGLVQAGGSLRLSCAASGRTLKINAMGWYRQAPGKERELVARISAGRTYYADSVKGRFTISRDNAKNTVYLQMNSLKPEDTAVYYCARRTNRPPWGFEYWGQGTQVTVSS | high polyreactivity
21 | QVQLVESGGGLVQAGGSLRLSCAASGRTLKVYAMGWYRQAPGKERELVAAINNGGSTNYADSVKGRFTISRDNAKNTVYLQMNSLKPEDTAVYYCNAVYYARYRNYTYYYWGQGTQVTVSS | high polyreactivity

Row | Sequence | polyreactivity (PSR sort gate)
22 | QVQLVESGGGLVQAGGSLRLSCAASGRTLNRYAMGWYRQAPGKERELVAAIRWRGASTYYADSVKGRFTISRDNAKNTVYLQMNSLKPEDTAVYYCAKRFFASTPNFDYWGQGTQVTVSS | high polyreactivity
23 | QVQLVESGGGLVQAGGSLRLSCAASGRTLPFYAMGWYRQAPGKERELLAAINRSGGSTYYADSVKGRFTISRDNAKNTVSLQMNILKPEDTAVYYGNNVTVPGLGYYPPSYSNGHWGQGTQVSVSS | high polyreactivity
24 | QVQLVESGGGLVQAGGSLRLSCAASGRTLPYNAMGWYRQAPGKERELVAAISKRGSSTYYADSVKGRFTISRDNAKNTVYLQMNSLKPEDTAVYYCAKGGSFYYWGQGTQVTVSS | high polyreactivity
25 | QVQLVESGGGLVQAGGSLRLSCAASGRTLQTYVMGWYRQPPGKERELVAAITRGGGSTYYADSVKGRFTISRDNAKNTVYLQMNSLKPEDTAVYYCAASALRFNSRFSHWYNYWGQGTQVTVSS | high polyreactivity
26 | QVQLVESGGGLVQAGGSLRLSCAASGRTLRINTMGWYRQAPGKERELVADITSSGGSTYYADSVKGRFTISRDNAKNTVYLQMNSLKPEDTAVYYCAADPIDIYYWEFDYLGQGTQVTVSS | low polyreactivity
27 | QVQLVESGGGLVQAGGSLRLSCAASGRTLRKYAMGWYRQAPGKERELVAAITWTGGTTYYADSVKWRFTISRDNAKNTVYLQMNSLKPEDTAVYYCATVRSYGYGYDFWGQGTQVTVSS | high polyreactivity
28 | QVQLVESGGGLVQAGGSLRLSCAASGRTLRLYAMGWYRPAPGKERELVASITGRGGSTYYADSVKGRFTISRDNAKNTVYLQMNSLKPEDTAVYYCAKLPLSTAMGYWGQGTQVTVSS | low polyreactivity
29 | QVQLVESGGGLVQAGGSLRLSCAASGRTLRSYAMGWYRQAPGKERELVARISSGGSTTYADSVKGRFTISRDNAKNTVYLQMNSLKPEDTAVYYCNAQLVYTVYRLRYYHWGQGTQVTVSS | high polyreactivity
30 | QVQLVESGGGLVQAGGSLRLSCAASGRTLSLYAMGWYRQAPGKERELVATISKSGGSTDYADSVKGRFTISRDNAKNTVYLQMNSLKPEDTAVYYCAADANSWFTSYQVYGSEFDYWGQGTQVTVSS | low polyreactivity
31 | QVQLVESGGGLVQAGGSLRLSCAASGRTLSNYAMGWYRQAPGKERELVAAISSSGSTNYADSVKGRFTISRDNAKNTVYLQMNSLKPEDTAVYYCAAESWFLRWYRYDYWGQGTQVTVSS | low polyreactivity
32 | QVQLVESGGGLVQAGGSLRLSCAASGRTLSYYAMGWYRQAPGKEREFVAAITGSGGSTYYADSVKGRFTISRDNAKNNVYLQMNSLKPEDTAVYYCNATGLGVFTVEYYYWGQGTQVTVSS | low polyreactivity
33 | QVQLVESGGGLVQAGGSLRLSCAASGRTLTRYTMGWYRQAPGKERELVATISRSGGNTHYADSVKGRFTISRDNAKNTVYLQMNSLKPEDTAVYYCNAVRYALYGYDYWGQGTQVTVSS | high polyreactivity
34 | QVQLVESGGGLVQAGGSLRLSCAASGRTLVDYGMVWYRQAPGKERELVAVITSGGSTYYADSVKGRFTISRDNAKNTVYLQLNSLIQEDTAVYYCAADNCYRGYHSPYDYWGQGTQVTVSS | low polyreactivity
35 | QVQLVESGGGLVQAGGSLRLSCAASGRTLVLYAMGWYRQAPGKERELVAAITWSGDSTYYADSVKGRFTISRDNAKNTVYLQMNSLKPEDTAVYYCAADKSYRRVYYWGQGTQVTVSS | low polyreactivity
36 | QVQLVESGGGLVQAGGSLRLSCAASGRTLVPYAMGWYRQAPGKERELVAAISNVSSTNYADSVKGRFTISRDNAKNTGYLQMNSLKPEDTAVYYCNAVGVPSEYYSWGQGTQVTVSS | low polyreactivity
37 | QVQLVESGGGLVQAGGSLRLSCAASGRTLWSYTMGWYRQAPGKESELVARITIGGSTNYADSVKGRFTISRDNAKNTVYLQMNSLKPEDTAVYYCNARASYSYGSYLSKSYGYDYWGQGTQVTVSS | high polyreactivity
38 | QVQLVESGGGLVQAGGSLRLSCAASGRTLYDYAMEWYRQAPGKERELVAGITSGDSTYYADSVKGRFTISRDNAKNTVDLQMNSLKPEDTAVYYCAADSDTFYYTGYDYDYWGQGTQGTVSS | low polyreactivity
39 | QVQLVESGGGLVQAGGSLRLSCAASGRTLYQYAMGWYRQAPGKERELVAAITWNGGSTYYADSVKGRFTISRDNAKNTVYLQMNSLKPEDTAVYYCAADTVRPWYAYKAHDYWGQGTQVTVSS | low polyreactivity
40 | QVQLVESGGGLVQAGGSLRLSCAASGRTLYRYAMGWYRQAPGKERELVAAIRSGGRTNYSDSVKGRFTISRDNAKNTVYLQMNSLKPEDTAVYYCAARTLRYPSTYDYWGQGTQVTVSS | high polyreactivity
41 | QVQLVESGGGLVQAGGSLRLSCAASGRTLYRYAMGWYRQAPGKERELVATITTGGSTNYADSVKGRFTISRDNAKNTVYLQMNSLKPEDTAVYYCNAGILSRWVRKYYYWGQGTQVTVSS | low polyreactivity

— the nanobody polyreactivity screen of Harvey et al. (2022)
